Measured values from publication doi:10.1101/2023.08.28.555152.
Read-outs that look alike come from different tables or passages of the source.

How the values were obtained:
Assay in all cases: MST
[1] = target: FITC-labeled IST1 (recombinant full-length IST1)
[2] = target: FITC-labeled IST1 (recombinant full-length IST1); remark: listed apart in the source
[3] = target: FITC-labeled IST1 (recombinant full-length IST1); remark: listed apart in the source

Kd [1]: 20.3 µM | Kd [2]: 153 µM | Kd [3]: 9 µM
B1: CHMP1B (recombinant full length) (natural protein)
chain: MSNMEKHLFNLKFAAKELSRSAKKCDKEEKAEKAKIKKAIQKGNMEVARIHAENAIRQKNQAVNFLRMSARVDAVAARVQTAVTMGKVTKSMAGVVKSMDATLKTMNLEKISALMDKFEHQFETLDVQTQQMEDTMSSTTTLTTPQNQVDMLLQEMADEAGLDLNMELPQGQTGSVGTSVASAEQDELSQRLARLRDQV
